In publication PMC7320145, “Substrate Channeling via a Transient Protein-Protein Complex: The case of D-Glyceraldehyde-3-Phosphate Dehydrogenase and L-Lactate Dehydrogenase” (Scientific Reports, 2020):

B1: baker's yeast D-glyceraldehyde-3-phosphate dehydrogenase (enzyme)
chain: VRVAINGFGRIGRLVMRIALSRPNVEVVALNDPFITNDYAAYMFKYDSTHGRYAGEVSHDDKHIIVDGKKIATYQERDPANLPWGSSNVDIAIDSTGVFKELDTAQKHIDAGAKKVVITAPSSTAPMFVMGVNEEKYTSDLKIVSNASCTTNCLAPLAKVINDAFGIEEGLMTTVHSLTATQKTVDGPSHKDWRGGRTASGNIIPSSTGAAKAVGKVLPELQGKLTGMAFRVPTVDVSVVDLTVKLNKETTYDEIKKVVKAAAEGKLKGVLGYTEDAVVSSDFLGDSHSSIFDASAGIQLSPKFVKLVSWYDNEYGYSTRVVDLVEHVAKA
modifications: Homotetramer, apo-enzyme preparation from yeast (NADH added in the binding assays). The isozyme is taken as TDH3 because the cited PDB 3PYM is GAPDH 3. The natural preparation may contain minor …
B2: porcine heart L-lactate dehydrogenase (enzyme)
chain: not shown
notes: L-lactate dehydrogenase from porcine heart (phLDH), tetramer; also called phLDH; PhLDH

Assays:
[1] = target: B2; assay: AUC; sedimentation velocity of a mixture of phLDH and byGAPDH, each 6 μM; 50 mM Tris/HCl, pH = 7.2, 1 mM EDTA, 0.5 mM DTT; scans at 280 nm, 7 hours at 40,000 x g; fit with SEDFIT to a one-component model and compared with a Claverie simulation of 10% association; details: both partners purified
[2] = target: the molecule itself; assay: AUC; sedimentation velocity of each enzyme alone at 6 μM; scans at 280 nm, 7 hours at 40,000 x g; SEDFIT with s and Mr as free fit parameters; Mr compared with the mass calculated from the sequence
[3] = target: B1; assay: cell-based or functional assay
[4] = target: T1, rabbit muscle D-glyceraldehyde-3-phosphate dehydrogenase (rabbit, UniProt P46406 2-333); assay: cell-based or functional assay
T1 sequence (P46406 2-333): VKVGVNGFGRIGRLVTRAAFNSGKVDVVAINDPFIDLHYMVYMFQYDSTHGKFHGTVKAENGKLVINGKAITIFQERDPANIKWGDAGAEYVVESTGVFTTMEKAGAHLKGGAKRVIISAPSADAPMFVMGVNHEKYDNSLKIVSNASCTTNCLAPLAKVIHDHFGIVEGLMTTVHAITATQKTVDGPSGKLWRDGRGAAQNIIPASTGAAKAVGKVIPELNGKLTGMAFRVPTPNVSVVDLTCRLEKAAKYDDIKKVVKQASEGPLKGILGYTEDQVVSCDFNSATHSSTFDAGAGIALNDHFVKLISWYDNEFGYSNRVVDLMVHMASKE

[5] = target: B1; assay: cell-based or functional assay; remark: listed apart in the source
[6] = target: T1, rabbit muscle …; assay: cell-based or functional assay; remark: listed apart in the source

Kd [1] [µM]	ratio between measured phLDH activity and the calculated free-diffusion activity; 40 μM NADH, byGAPDH 240 to 480 μM of NADH binding sites; ratio rises from 3.5 to 6.1 fold [3] [fold]	ratio between measured phLDH activity and the calculated free-diffusion activity; byGAPDH fixed at 480 μM NADH binding sites, NADH decreased from 40 to 10 μM; ratio rises from 5.2 to 6.6 fold [3] [fold]	ratio between measured phLDH activity and the calculated free-diffusion activity; 40 μM NADH, rmGAPDH 100 to 240 μM of NADH binding sites; ratio rises from 1.3 to 2.0 fold [4] [fold]	ratio between measured phLDH activity and the calculated free-diffusion activity; rmGAPDH fixed at 200 μM NADH binding sites, NADH decreased from 40 to 10 μM; ratio rises from 1.7 to 2.28 fold [4] [fold]	apparent KM of phLDH with byGAPDH-NADH complex as substrate (630 μM pyruvate) [5] [µM]	apparent KM of phLDH with rmGAPDH-NADH complex as substrate (630 μM pyruvate) [6] [µM]	Binder	binding result [2]
≥ 48.6							B1	
	6.1	6.6	2	2.28	116	59.6	B2	binds
